Measurements published in US11649285B2, “Identification of VSIG3/VISTA as a novel immune checkpoint and use thereof for immunotherapy” (BIO-TECHNE CORPORATION, dated 2023).

Target: Recombinant human VISTA Fc Chimera (human (homo sapiens))
Experiment: functional ELISA: rhVISTA coated at 2 µg/mL, biotin-labeled rhVSIG3, streptavidin-HRP
Description: Following blocking of the wells with 1% BSA, varying amounts of rhVSIG3 labeled with biotin was added. Biotin label associated with the plate due to the rhVSIG3—rhVISTA interaction was detected with streptavidin-HRP.

Sequence of Recombinant human VISTA Fc Chimera (human (homo sapiens)) (chain, as listed by the source mutant limits assumed): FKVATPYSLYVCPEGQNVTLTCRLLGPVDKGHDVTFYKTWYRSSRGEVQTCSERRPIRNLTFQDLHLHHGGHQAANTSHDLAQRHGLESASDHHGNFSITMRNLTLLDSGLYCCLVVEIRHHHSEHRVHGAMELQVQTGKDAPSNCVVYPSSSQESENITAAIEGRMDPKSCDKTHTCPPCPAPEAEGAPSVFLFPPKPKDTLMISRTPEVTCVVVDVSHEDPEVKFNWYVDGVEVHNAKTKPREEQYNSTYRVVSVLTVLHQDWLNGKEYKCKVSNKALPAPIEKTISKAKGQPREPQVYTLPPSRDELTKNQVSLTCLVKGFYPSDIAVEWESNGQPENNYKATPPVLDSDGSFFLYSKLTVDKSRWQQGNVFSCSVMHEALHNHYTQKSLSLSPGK

B1: Recombinant human VSIG3 Fc Chimera (Fc fusion)
chain: LEVSESPGSIQVARGQTAVLPCTFTTSAALINLNVIWMVTPLSNANQPEQVILYQGGQMFDGAPRFHGRVGFTGTMPATNVSIFINNTQLSDTGTYQCLVNNLPDIGGRNIGVTGLTVLVPPSAPHCQIQGSQDIGSDVILLCSSEEGIPRPTYLWEKLDNTLKLPPTATQDQVQGTVTIRNISALSSGLYQCVASNAIGTSTCLLDLQVISPQPRNIGLIAG
- EC50: ~0.25 µg/mL
